Test results: patent US20190177366A1 (published 2019)
Read-outs that look alike come from different tables or passages of the source. Bridge positions count the residues as written; N and C are the ends. Square brackets hold non-standard residues; d marks the D form. Ends that are not written are not given here. hArg = N=C(N)NCCCC[C@H](N)C(=O)O

Columns and labels:
[1] = molecular target: T1, His-tagged, full-length PCSK9 (human, UniProt Q8NBP7 31-152; Q8NBP7 153-692); assay: TR-FRET competition, His-PCSK9; competitor EGF(A)-Fc
T1 construct: Target protein of the PCSK9/EGF(A) TR-FRET assay (10 nM); also called His-PCSK9
T1 sequence (Q8NBP7 31-152, chain 1 of 2): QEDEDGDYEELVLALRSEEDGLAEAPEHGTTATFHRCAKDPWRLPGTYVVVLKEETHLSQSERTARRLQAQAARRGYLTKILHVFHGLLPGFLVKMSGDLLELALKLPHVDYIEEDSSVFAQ
T1 sequence (Q8NBP7 other isoform, or with tags, fused parts or gaps, chain 2 of 2): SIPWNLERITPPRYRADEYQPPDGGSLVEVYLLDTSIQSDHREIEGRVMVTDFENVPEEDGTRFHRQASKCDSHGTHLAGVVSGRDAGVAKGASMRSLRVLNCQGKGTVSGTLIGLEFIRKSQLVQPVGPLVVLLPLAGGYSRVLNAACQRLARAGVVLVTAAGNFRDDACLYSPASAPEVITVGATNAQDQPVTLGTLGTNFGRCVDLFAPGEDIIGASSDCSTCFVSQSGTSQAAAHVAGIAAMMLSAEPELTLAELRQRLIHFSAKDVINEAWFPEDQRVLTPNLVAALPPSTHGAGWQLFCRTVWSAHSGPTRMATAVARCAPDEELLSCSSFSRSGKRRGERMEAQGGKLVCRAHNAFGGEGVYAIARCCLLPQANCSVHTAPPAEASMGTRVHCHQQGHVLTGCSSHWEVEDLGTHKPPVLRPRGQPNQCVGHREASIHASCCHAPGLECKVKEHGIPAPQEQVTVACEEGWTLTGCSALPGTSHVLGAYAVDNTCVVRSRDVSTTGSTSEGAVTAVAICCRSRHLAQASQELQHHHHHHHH

[2] = molecular target: T2, PCSK9Δhelix (human, UniProt Q8NBP7 31-152); assay: SPR
T2 construct: domain: prodomain; Construct M1-Q692 with engineered TEV site, cut with TEV; His-tagged (tag not written as a part); also called His-PCSK9Δhelix; open groove PCSK9Δhelix
T2 sequence (Q8NBP7 31-152 limits assumed, stated change not applied, form in doubt, chain 1 of 2): as the sequence (Q8NBP7 31-152, chain 1 of 2) above
T2 sequence (Q8NBP7 other isoform, or with tags, fused parts or gaps mutant limits assumed, form in doubt, chain 2 of 2): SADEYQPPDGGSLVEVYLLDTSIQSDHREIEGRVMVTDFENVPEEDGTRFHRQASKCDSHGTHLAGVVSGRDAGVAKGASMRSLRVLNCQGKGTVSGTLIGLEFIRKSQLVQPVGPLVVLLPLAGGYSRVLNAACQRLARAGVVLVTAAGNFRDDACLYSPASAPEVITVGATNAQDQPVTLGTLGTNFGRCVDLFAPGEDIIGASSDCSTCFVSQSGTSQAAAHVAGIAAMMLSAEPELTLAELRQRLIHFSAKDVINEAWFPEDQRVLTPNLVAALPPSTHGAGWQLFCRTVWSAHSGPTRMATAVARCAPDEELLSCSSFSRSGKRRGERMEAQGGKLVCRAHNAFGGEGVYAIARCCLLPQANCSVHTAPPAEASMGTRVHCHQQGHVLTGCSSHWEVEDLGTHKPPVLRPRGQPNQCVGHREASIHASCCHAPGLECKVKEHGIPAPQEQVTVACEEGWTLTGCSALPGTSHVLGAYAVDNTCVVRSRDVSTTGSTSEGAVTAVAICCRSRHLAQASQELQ

[3] = molecular target: T3, His-tagged, full-length PCSK9 (human, UniProt A8T644 31-152; Q8NBP7 153-692); assay: TR-FRET competition; competitor EGF(A)-Fc on His-PCSK9
T3 construct: Target protein of the PCSK9/EGF(A) TR-FRET assay (10 nM); also called His-PCSK9; proprotein convertase subtilisin/kexin type 9
T3 sequence (A8T644 31-152 limits assumed, chain 1 of 2): as the sequence (Q8NBP7 31-152, chain 1 of 2) above
T3 sequence (A8T644 other isoform, or with tags, fused parts or gaps limits assumed, chain 2 of 2): as the sequence (Q8NBP7 other isoform, or with tags, fused parts or gaps, chain 2 of 2) above

[4] = molecular target: T4, His-tagged PCSK9Δhelix (human, UniProt Q8NBP7 31-152; Q8NBP7 168-692); assay: TR-FRET competition; competitor Ab20 on His-PCSK9Δhelix
T4 construct: Human PCSK9 M1-Q692 with engineered TEV site, cleaved by TEV protease; Target protein of the PCSK9Δhelix/Ab20 TR-FRET assay (1.25 nM); also called His-PCSK9Δhelix
T4 sequence (Q8NBP7 31-152, stated change not applied, chain 1 of 2): as the sequence (Q8NBP7 31-152, chain 1 of 2) above
T4 sequence (Q8NBP7 other isoform, or with tags, fused parts or gaps mutant, chain 2 of 2): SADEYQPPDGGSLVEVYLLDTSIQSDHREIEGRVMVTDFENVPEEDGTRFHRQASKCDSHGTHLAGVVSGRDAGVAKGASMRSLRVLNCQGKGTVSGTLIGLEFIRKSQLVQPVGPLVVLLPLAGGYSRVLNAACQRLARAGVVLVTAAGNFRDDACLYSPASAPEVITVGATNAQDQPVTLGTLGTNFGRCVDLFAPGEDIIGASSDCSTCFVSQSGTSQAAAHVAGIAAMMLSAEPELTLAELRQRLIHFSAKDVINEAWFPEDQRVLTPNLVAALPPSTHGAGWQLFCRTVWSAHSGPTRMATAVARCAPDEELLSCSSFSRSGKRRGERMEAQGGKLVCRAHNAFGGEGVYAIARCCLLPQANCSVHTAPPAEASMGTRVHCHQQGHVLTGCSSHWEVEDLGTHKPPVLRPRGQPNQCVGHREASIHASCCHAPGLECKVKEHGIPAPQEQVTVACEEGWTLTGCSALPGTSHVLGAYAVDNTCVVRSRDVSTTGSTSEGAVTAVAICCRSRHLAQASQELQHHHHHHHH

[5] = molecular target: T5, human PCSK9 (proprotein convertase subtilisin/kexin type 9), His-tagged, full-length (human, UniProt A8T644 31-152; Q8NBP7 153-692, limits assumed); assay: TR-FRET competition vs EGF(A)-Fc on His-PCSK9
T5 construct: The secreted protein is the prodomain plus the catalytic/Cys-rich part (N-terminus S153) after autocleavage; also called His-PCSK9; NARC-1
T5 sequence (A8T644 31-152 limits assumed, chain 1 of 2): as the sequence (Q8NBP7 31-152, chain 1 of 2) above
T5 sequence (A8T644 other isoform, or with tags, fused parts or gaps limits assumed, chain 2 of 2): as the sequence (Q8NBP7 other isoform, or with tags, fused parts or gaps, chain 2 of 2) above

[6] = molecular target: T6, PCSK9Δhelix (human PCSK9 lacking the P' helix, His-tagged) (human, UniProt Q8NBP7 31-152; Q8NBP7 168-692); assay: TR-FRET competition vs Ab20 on His-PCSK9Δhelix
T6 construct: Construct M1-Q692 with engineered TEV site (Y166, R167 deleted, ENLYFQS inserted between R165 and A168), cleaved by TEV protease; new N-terminus of the catalytic domain is S-A168; also called His-PCSK9Δhelix
T6 sequence (Q8NBP7 31-152, stated change not applied, chain 1 of 2): as the sequence (Q8NBP7 31-152, chain 1 of 2) above
T6 sequence (Q8NBP7 other isoform, or with tags, fused parts or gaps mutant, chain 2 of 2): as the sequence (Q8NBP7 other isoform, or with tags, fused parts or gaps mutant, chain 2 of 2) above

[7] = molecular target: T5, human PCSK9 (proprotein convertase …); assay: TR-FRET competition vs EGF(A)-Fc on His-PCSK9; remark: listed apart in the source
[8] = molecular target: T5, human PCSK9 (proprotein convertase …); assay: SPR, Biacore T100, NTA capture, single cycle kinetics (Method 2)
[9] = molecular target: T7, proprotein convertase subtilisin/kexin type 9 (PCSK9) (human, UniProt Q8NBP7 31-152); assay: phage competition ELISA
T7 construct: domain: prodomain; Recombinant; tag not written as a part; also called rec.PCSK9; His-PCSK9
T7 sequence (Q8NBP7 31-152 limits assumed, chain 1 of 2): as the sequence (Q8NBP7 31-152, chain 1 of 2) above
T7 sequence (Q8NBP7 153-692 limits assumed, chain 2 of 2): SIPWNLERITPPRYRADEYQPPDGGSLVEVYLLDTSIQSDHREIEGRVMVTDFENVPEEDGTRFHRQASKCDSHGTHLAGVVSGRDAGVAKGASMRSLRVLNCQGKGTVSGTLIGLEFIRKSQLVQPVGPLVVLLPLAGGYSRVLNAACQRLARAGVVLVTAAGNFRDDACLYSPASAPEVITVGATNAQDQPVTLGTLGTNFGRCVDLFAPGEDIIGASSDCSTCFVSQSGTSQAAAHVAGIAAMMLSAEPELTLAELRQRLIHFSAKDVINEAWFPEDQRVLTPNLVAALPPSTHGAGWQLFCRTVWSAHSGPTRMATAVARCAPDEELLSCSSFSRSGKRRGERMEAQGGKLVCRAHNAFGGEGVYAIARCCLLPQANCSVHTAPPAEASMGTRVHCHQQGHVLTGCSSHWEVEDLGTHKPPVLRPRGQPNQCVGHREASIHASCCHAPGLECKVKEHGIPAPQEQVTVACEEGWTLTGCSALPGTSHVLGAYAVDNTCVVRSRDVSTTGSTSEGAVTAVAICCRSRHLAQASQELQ

[10] = molecular target: T7, proprotein convertase subtilisin/kexin …; assay: phage ELISA

## Ac-SGDLMPWNLVRIGLLR-NH2 [Compound 122]
[1]
  IC50: ≥ 50 µM

## Ac-WNLVRIGLLR-NH2 [Compound 53]
[2]
  fold reduction of binding affinity against Compound 35: 10 fold

B1: Compound 109 (peptide)
peptide: Ac-C[dR]LPWNLQRIGLPC-NH2
modifications: disulfide 1-14
SMILES: CC[C@H](C)[C@@H]1NC(=O)[C@H](CCCNC(=N)N)NC(=O)[C@H](CCC(N)=O)NC(=O)[C@H](CC(C)C)NC(=O)[C@H](CC(N)=O)NC(=O)[C@H](Cc2c[nH]c3ccccc23)NC(=O)[C@@H]2CCCN2C(=O)[C@H](CC(C)C)NC(=O)[C@@H](CCCNC(=N)N)NC(=O)[C@@H](NC(C)=O)CSSC[C@@H](C(N)=O)NC(=O)[C@@H]2CCCN2C(=O)[C@H](CC(C)C)NC(=O)CNC1=O
[3]
  IC50: > 50 µM
[4]
  IC50: 1.67 µM

## Ac-DLMPWNLVRIALLR-NH2 [Compound 57]
[5]
  IC50: > 50 µM
[6]
  IC50: 49.5 µM

## Ac-WNLV[hArg]IGLLR-NH2 (Ac-WNLV(homoR)IGLLR-NH2) [Compound 192]
[2]
  fold improvement of binding affinity against Compound 53: 14 fold

B2: Compound 2 (peptide)
peptide: Ac-TVFTSWEEYLDWVGSGCWNLKRIGSQGC-NH2
modifications: disulfide 17-28
SMILES: CC[C@H](C)[C@@H]1NC(=O)[C@H](CCCNC(=N)N)NC(=O)[C@H](CCCCN)NC(=O)[C@H](CC(C)C)NC(=O)[C@H](CC(N)=O)NC(=O)[C@H](Cc2c[nH]c3ccccc23)NC(=O)[C@@H](NC(=O)CNC(=O)[C@H](CO)NC(=O)CNC(=O)[C@@H](NC(=O)[C@H](Cc2c[nH]c3ccccc23)NC(=O)[C@H](CC(=O)O)NC(=O)[C@H](CC(C)C)NC(=O)[C@H](Cc2ccc(O)cc2)NC(=O)[C@H](CCC(=O)O)NC(=O)[C@H](CCC(=O)O)NC(=O)[C@H](Cc2c[nH]c3ccccc23)NC(=O)[C@H](CO)NC(=O)[C@@H](NC(=O)[C@H](Cc2ccccc2)NC(=O)[C@@H](NC(=O)[C@@H](NC(C)=O)[C@@H](C)O)C(C)C)[C@@H](C)O)C(C)C)CSSC[C@@H](C(N)=O)NC(=O)CNC(=O)[C@H](CCC(N)=O)NC(=O)[C@H](CO)NC(=O)CNC1=O
[7]
  IC50: 0.11 µM
[8]
  Kd: 0.0303 µM

## SGCRLPWNLQRIGLPC (not fully specified (bridges); cysteine pairing not given here, Synthetic peptide) [K9gvpep4]
[9]
  binding result: binds

B3: Phage-displayed Pep2-8 (on p8) (peptide)
chain: TVFTSWEEYLDWV
notes: Peptide fused to the N-terminus of p8 on M13 phage; also called phage displaying Pep2-8; not shown: M13 major coat protein p8
[10]
  binding result: binds

B4: Compound 108 (peptide)
peptide: Ac-CR[dL]PWNLQRIGLPC-NH2
modifications: disulfide 1-14
SMILES: CC[C@H](C)[C@@H]1NC(=O)[C@H](CCCNC(=N)N)NC(=O)[C@H](CCC(N)=O)NC(=O)[C@H](CC(C)C)NC(=O)[C@H](CC(N)=O)NC(=O)[C@H](Cc2c[nH]c3ccccc23)NC(=O)[C@@H]2CCCN2C(=O)[C@@H](CC(C)C)NC(=O)[C@H](CCCNC(=N)N)NC(=O)[C@@H](NC(C)=O)CSSC[C@@H](C(N)=O)NC(=O)[C@@H]2CCCN2C(=O)[C@H](CC(C)C)NC(=O)CNC1=O
[3]
  IC50: > 50 µM
[4]
  IC50: 28.2 µM
